Consider two molecules from US20240059799A1 (Pfizer, published 2024).

Numbering of substitutions follows the chain as printed.

Experiment [1] has as its target T1, cynomolgus monkey IL-23 (cynomolgus monkey, limits assumed).
T1 chain 1: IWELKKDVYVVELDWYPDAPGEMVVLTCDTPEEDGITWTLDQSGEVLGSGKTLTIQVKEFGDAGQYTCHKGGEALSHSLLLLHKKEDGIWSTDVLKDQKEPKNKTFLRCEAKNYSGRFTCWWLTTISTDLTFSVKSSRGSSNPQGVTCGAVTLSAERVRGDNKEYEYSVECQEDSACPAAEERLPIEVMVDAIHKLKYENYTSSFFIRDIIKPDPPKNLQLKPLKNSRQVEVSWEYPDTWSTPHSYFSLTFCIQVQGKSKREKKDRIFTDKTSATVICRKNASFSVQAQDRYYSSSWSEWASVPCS
T1 chain 2: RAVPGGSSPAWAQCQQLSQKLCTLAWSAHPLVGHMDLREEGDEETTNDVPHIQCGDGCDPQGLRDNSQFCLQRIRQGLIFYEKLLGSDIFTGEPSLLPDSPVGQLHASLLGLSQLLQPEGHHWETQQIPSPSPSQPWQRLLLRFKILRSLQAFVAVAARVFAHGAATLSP
Put plainly: cell-based or functional assay.

Experiment [2] addresses T2, rat IL-12 (rat, UniProt P43432 23-335; Q9R103 23-215, limits assumed).
T2 chain 1: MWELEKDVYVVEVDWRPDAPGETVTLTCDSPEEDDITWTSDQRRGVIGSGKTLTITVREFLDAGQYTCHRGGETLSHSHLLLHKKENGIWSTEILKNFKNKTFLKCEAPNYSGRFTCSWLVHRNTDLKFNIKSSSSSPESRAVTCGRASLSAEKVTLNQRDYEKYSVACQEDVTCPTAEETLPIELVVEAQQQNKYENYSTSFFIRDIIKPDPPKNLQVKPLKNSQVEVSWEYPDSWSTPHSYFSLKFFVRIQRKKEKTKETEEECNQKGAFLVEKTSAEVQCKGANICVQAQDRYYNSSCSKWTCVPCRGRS
T2 chain 2: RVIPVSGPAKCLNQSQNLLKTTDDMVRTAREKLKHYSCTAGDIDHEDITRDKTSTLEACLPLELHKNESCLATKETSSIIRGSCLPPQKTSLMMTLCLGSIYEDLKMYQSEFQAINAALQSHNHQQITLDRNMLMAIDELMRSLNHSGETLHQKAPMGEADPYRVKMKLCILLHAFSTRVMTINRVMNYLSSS
Put plainly: SPR, antibody captured by anti-human Fc, cytokine injected. The protocol:
(§1) In order to determine binding to TL1A, kinetic assays were conducted at 37° C. using a collection rate of 10 Hz on a Biacore™ T200 instrument (GE Healthcare). […] For the analysis of the p40 binding arm, kinetic assays were conducted at 37° C. using a collection rate of 10 Hz on a Biacore™ 8 K+ instrument (GE Healthcare).
Background: In SPR one partner is held on a chip, and binding of the other changes the refractive index at the surface.

The target of experiment [3] is T3, rat IL-23 (rat, UniProt P43432 23-335; Q91Z84 22-196, limits assumed).
T3 chain 1: T2 chain 1
T3 chain 2: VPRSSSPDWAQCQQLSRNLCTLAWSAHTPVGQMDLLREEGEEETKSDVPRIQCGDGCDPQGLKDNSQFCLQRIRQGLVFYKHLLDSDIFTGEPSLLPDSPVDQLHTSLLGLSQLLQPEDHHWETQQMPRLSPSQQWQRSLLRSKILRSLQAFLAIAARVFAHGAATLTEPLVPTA
The experiment is described as above. How it is done:
as §1

Experiment [4] has as its target T4, human IL-12 (human, UniProt P29460 23-328; P29459 23-219).
T4 sequence 1: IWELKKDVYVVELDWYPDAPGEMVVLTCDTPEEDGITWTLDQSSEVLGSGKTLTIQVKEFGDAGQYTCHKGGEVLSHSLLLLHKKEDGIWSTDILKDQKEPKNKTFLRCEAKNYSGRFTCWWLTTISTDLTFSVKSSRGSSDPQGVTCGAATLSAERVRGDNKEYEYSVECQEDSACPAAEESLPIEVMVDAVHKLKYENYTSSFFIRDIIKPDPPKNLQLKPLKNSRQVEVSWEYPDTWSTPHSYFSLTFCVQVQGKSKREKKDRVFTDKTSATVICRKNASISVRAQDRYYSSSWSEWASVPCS
T4 sequence 2: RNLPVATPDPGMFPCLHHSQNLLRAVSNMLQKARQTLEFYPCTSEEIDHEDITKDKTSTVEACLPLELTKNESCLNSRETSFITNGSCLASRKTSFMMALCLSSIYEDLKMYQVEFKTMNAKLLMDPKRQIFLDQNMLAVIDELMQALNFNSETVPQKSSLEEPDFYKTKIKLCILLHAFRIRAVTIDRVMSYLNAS
The experiment can be described thus: cell-based or functional assay.

Experiment [5] addresses T5, cynomolgus monkey IL-12 (cynomolgus monkey).
T5 chain 1: T1 chain 1
T5 chain 2: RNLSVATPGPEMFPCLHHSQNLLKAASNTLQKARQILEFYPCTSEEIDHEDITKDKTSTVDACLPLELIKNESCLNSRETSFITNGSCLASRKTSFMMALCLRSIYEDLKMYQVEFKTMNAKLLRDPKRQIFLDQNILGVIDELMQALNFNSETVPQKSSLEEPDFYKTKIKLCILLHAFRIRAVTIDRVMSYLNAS
The experiment can be described thus: cell-based or functional assay.

Experiment [6] has as its target T6, human IL-23 (human, UniProt P29460 23-328; Q9NPF7 20-189).
T6 sequence 1: T4 sequence 1
T6 sequence 2: T1 chain 2 with A12T, R75H, P131L
The experiment can be described thus: cell-based or functional assay.

Experiment [7] has as its target T7, cynomolgus monkey IL-23 (cynomolgus monkey, limits assumed).
T7 chain 1: T1 chain 1
T7 chain 2: T1 chain 2
Put plainly: cell-based or functional assay.

For experiment [8], the target named is T8, recombinant rat TL1A (rat, UniProt Q8K3Y7 76-252).
T8 sequence: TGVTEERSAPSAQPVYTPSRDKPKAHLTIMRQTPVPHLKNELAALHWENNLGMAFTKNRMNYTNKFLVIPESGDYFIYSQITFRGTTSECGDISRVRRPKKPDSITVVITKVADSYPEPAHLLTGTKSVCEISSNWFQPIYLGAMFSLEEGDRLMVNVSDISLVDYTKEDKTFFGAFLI
The experiment can be described thus: SPR, Biacore T200, 37 C; biotinylated TL1A captured on Biotin CAPture chip, antibody injected; KD value is approximate. How it is done: as §1

B1: p40TL1A-0033 (bispecific antibody, human IgG1, kappa)
chain 1: not shown
chain 2: QVQLVQSGAEVKKPGASVKVSCKASGYDYTYYGISWVRQAPGQGLEWMGWISTYNTGTHYAPSLQGRVTMTTDTSTSTAYMELRSLRSDDTAVYYCARESYYGSGAFRGGMDVWGQGTTVTVSSASTKGPSVFPLAPSSKSTSGGTAALGCLVKDYFPEPVTVSWNSGALTSGVHTFPAVLQSSGLYSLSSVVTVPSSSLGTQTYICNVNHKPSNTKVDKKVEPKSC
heavy: EVQLVQSGAEVKKPGESLKISCKGSGYSFTTYWLGWVRQMPGKGLDWIGIMSPVDSDIRYSPSFQGQVTMSVDKSITTAYLQWNSLKASDTAMYYCARRRPGQGYFDFWGQGTLVTVSSASTKGPSVFPLAPSSKSTSGGTAALGCLVKDYFPEPVTVSWNSGALTSGVHTFPAVLQSSGLYSLSSVVTVPSSSLGTQTYICNVNHKPSNTKVDKKVEPKSCDKTHTCPPCPAPEAAGAPSVFLFPPKPKDTLMISRTPEVTCVVVDVSHEDPEVKFNWYVDGVEVHNAKTKPREEQYNSTYRVVSVLTVLHQDWLNGKEYKCKVSNKALPAPIEKTISKAKGQPREPQVCTLPPSREEMTKNQVSLWCLVKGFYPSDIAVEWESNGQPENNYKTTPPVLDSDGSFFLYSKLTVDKSRWQQGNVFSCSVLHEALHSHYTQKSLSLSPGK
light: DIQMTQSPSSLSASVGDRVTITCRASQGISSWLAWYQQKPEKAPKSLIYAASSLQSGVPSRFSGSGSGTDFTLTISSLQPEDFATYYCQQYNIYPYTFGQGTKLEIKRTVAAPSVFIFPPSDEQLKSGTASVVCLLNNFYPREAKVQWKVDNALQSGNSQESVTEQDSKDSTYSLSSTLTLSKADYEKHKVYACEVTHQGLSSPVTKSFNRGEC
notes: KiH modified-Fd bispecific: TL1A VL-CL-Fc (hole), TL1A mFd, p40 HC (knob), p40 LC; LS
In the case of B1, the “KIT-225 STAT3 phosphorylation, fold-change of potency across species (human against cynomolgus monkey IL-23)” value in experiment [1] was found to be 1.2 fold. In addition, the binding result in experiment [2] and in experiment [3] was “no binding (tested: 200 nM)” throughout.

B2: p40TL1A-0033 bispecific antibody (bispecific antibody, human IgG1, kappa)
heavy: B1 heavy
light: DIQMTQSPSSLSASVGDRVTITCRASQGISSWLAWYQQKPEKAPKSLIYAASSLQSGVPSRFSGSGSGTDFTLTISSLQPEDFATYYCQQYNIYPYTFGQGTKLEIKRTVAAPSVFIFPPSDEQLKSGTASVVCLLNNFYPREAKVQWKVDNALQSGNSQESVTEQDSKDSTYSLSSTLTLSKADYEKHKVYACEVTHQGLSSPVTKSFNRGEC
chain 1: not shown
chain 2: B1 chain 2
notes: Single cell KiH, modified Fd format; IgG1 effector-function-minimized Fc with LS mutations
One may read the Kd as the free concentration of one partner at which half of the binding sites on the other are occupied at equilibrium, for simple one-to-one binding. With B2, the “KIT-225 STAT4 phosphorylation, Human IL-12 IC50” value in experiment [4] was found to be 1.11 nM. Further, in experiment [5], the “KIT-225 STAT4 phosphorylation, Cynomolgus Monkey IL-12 IC50” value was 0.95 nM. Also, the “KIT-225 STAT3 phosphorylation, Human IL-23 IC50” value in experiment [6] turned out to be 3.73 nM. In addition, in experiment [7], the “KIT-225 STAT3 phosphorylation, Cynomolgus Monkey IL-23 IC50” value was 4.34 nM. In experiment [8], the dissociation constant Kd was roughly 1080 nM.
